The values that follow come from the supplement of paper PMC5998384.

Series [1] has as its system HeLa Kyoto. Nature of the series: thermal stability score vs G1/S (z-score of summed log2 fold changes over temperatures); higher = more thermally stable than in G1/S.
Series [2] deals with HeLa Kyoto. Nature of the series: melting temperature (median over replicates), in situ; higher = more thermally stable.
For series [3], the system named is HeLa Kyoto. Nature of the series: solubility in G1/S (NP-40 vs SDS abundance) (log2 ratio); higher = more soluble. To be noted: cell cycle stage: G1/S.
Series [4] concerns HeLa Kyoto. Nature of the series: solubility change mitosis vs G1/S (difference of NP-40 vs SDS log2 ratios) (log2 ratio difference); higher = more soluble in mitosis.
The mark [5] stands for this setting: cell cycle stage: early G1 (4.5 h after nocodazole release).
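For melting temperature (median over replicates), in situ in this document: HeLa Kyoto cells synchronized by double thymidine or nocodazole block, proteins quantified by TMT10plex mass spectrometry, three independent biological replicates.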
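For solubility change mitosis vs G1/S (difference of NP-40 vs SDS log2 ratios) in this document: synchronized HeLa Kyoto cells (double thymidine block for G1/S, nocodazole release for mitosis), protein amounts in NP-40 versus SDS lysates quantified by mass spectrometry, three biological replicates.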
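For solubility in G1/S (NP-40 vs SDS abundance) in this document: HeLa Kyoto cells arrested at G1/S by double thymidine block, proteins quantified by TMT10plex mass spectrometry in mild NP-40 versus SDS extracts, three biological replicates.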
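For thermal stability score vs G1/S (z-score of summed log2 fold changes over temperatures) in this document: synchronized HeLa Kyoto cells, proteins quantified by TMT10plex mass spectrometry, three biological replicates, mitosis taken 0.5 h after nocodazole release, G1/S directly after double thymidine block.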

On to “MATAEVLNIGKKLYEGKTKEVYELLDSPGKVLLQSKDQITAGNAARKNHLEGKAAISNKITSCIFQLLQEAGIKTAFTRKCGETAFIAPQCEMIPIEWVCRRIATGSFLKRNPGVKEGYKFYPPKVELFFKDDANNDPQWSEEQLIAAKFCFAGLLIGQTEVDIMSHATQAIFEILEKSWLPQNCTLVDMKIEFGVDVTTKEIVLADVIDNDSWRLWPSGDRSQQKDKQSYRDLKEVTPEGLQMVKKNFEWVAERVELLLKSESQCRVVVLMGSTSDLGHCEKIKKACGNFGIPCELRVTSAHKGPDETLRIKAEYEGDGIPTVFVAVAGRSNGLGPVMSGNTAYPVISCPPLTPDWGVQDVWSSLRLPSGLGCSTVLSPEGSAQFAAQIFGLSNHLVWSKLRASILNTWISLKQADKKIRECNL [PAICS]”, for which the thermal stability score is -0.183 in the series on HeLa Kyoto [1] (setting [5]) and -0.625 with HeLa Kyoto [1] (cell cycle stage: mitosis). Further, the melting temperature in the series with HeLa Kyoto [2] (cell cycle stage: G1/S) amounted to 63.2 °C; in the series with HeLa Kyoto [2] (cell cycle stage: mitosis), 66.2 °C. For the same sequence, the “solubility in G1/S (log2)” value in the series with HeLa Kyoto [3] amounted to 0.271. Further, the “solubility change mitosis (log2)” value in the series on HeLa Kyoto [4] was -0.0303.
Consider “MATAMDWLPWSLLLFSLMCETSAFYVPGVAPINFHQNDPVEIKAVKLTSSRTQLPYEYYSLPFCQPSKITYKAENLGEVLRGDRIVNTPFQVLMNSEKKCEVLCSQSNKPVTLTVEQSRLVAERITEDYYVHLIADNLPVATRLELYSNRDSDDKKKEKDVQFEHGYRLGFTDVNKIYLHNHLSFILYYHREDMEEDQEHTYRVVRFEVIPQSIRLEDLKADEKSSCTLPEGTNSSPQEIDPTKENQLYFTYSVHWEESDIKWASRWDTYLTMSDVQIHWFSIINSVVVVFFLSGILSMIIIRTLRKDIANYNKEDDIEDTMEESGWKLVHGDVFRPPQYPMILSSLLGSGIQLFCMILIVIFVAMLGMLSPSSRGALMTTACFLFMFMGVFGGFSAGRLYRTLKGHRWKKGAFCTATLYPGVVFGICFVLNCFIWGKHSSGAVPFPTMVALLCMWFGISLPLVYLGYYFGFRKQPYDNPVRTNQIPRQIPEQRWYMNRFVGILMAGILPFGAMFIELFFIFSAIWENQFYYLFGFLFLVFIILVVSCSQISIVMVYFQLCAEDYRWWWRNFLVSGGSAFYVLVYAIFYFVNKLDIVEFIPSLLYFGYTALMVLSFWLLTGTIGFYAAYMFVRKIYAAVKID [TM9SF4]”, for which the values for the thermal stability score in the series on HeLa Kyoto [1] (setting [5]) and in the series on HeLa Kyoto [1] (cell cycle stage: mitosis) were 1.93 and 4.73, respectively. The melting temperature in the series on HeLa Kyoto [2] (cell cycle stage: G1/S) worked out at 52.5 °C; with HeLa Kyoto [2] (cell cycle stage: mitosis), 53.3 °C. Also, in the series with HeLa Kyoto [3], the “solubility in G1/S (log2)” value is -0.198. The “solubility change mitosis (log2)” value with HeLa Kyoto [4] was -0.228.
Take “MATANGAVENGQPDRKPPALPRPIRNLEVKFTKIFINNEWHESKSGKKFATCNPSTREQICEVEEGDKPDVDKAVEAAQVAFQRGSPWRRLDALSRGRLLHQLADLVERDRATLAALETMDTGKPFLHAFFIDLEGCIRTLRYFAGWADKIQGKTIPTDDNVVCFTRHEPIGVCGAITPWNFPLLMLVWKLAPALCCGNTMVLKPAEQTPLTALYLGSLIKEAGFPPGVVNIVPGFGPTVGAAISSHPQINKIAFTGSTEVGKLVKEAASRSNLKRVTLELGGKNPCIVCADADLDLAVECAHQGVFFNQGQCCTAASRVFVEEQVYSEFVRRSVEYAKKRPVGDPFDVKTEQGPQIDQKQFDKILELIESGKKEGAKLECGGSAMEDKGLFIKPTVFSEVTDNMRIAKEEIFGPVQPILKFKSIEEVIKRANSTDYGLTAAVFTKNLDKALKLASALESGTVWINCYNALYAQAPFGGFKMSGNGRELGEYALAEYTEVKTVTIKLGDKNP [ALDH1A3]”: the figures for the thermal stability score in the series on HeLa Kyoto [1] (setting [5]) and with HeLa Kyoto [1] (cell cycle stage: mitosis) were -0.893 and -0.266, respectively. The melting temperature in the series on HeLa Kyoto [2] (cell cycle stage: G1/S) came out at 55.4 °C; with HeLa Kyoto [2] (cell cycle stage: mitosis), 57.5 °C. The “solubility in G1/S (log2)” value in the series on HeLa Kyoto [3] was 0.122. Moreover, the “solubility change mitosis (log2)” value with HeLa Kyoto [4] was -0.0783.
For the sequence “MATATPVPPRMGSRAGGPTTPLSPTRLSRLQEKEELRELNDRLAVYIDKVRSLETENSALQLQVTEREEVRGRELTGLKALYETELADARRALDDTARERAKLQIELGKCKAEHDQLLLNYAKKESDLNGAQIKLREYEAALNSKDAALATALGDKKSLEGDLEDLKDQIAQLEASLAAAKKQLADETLLKVDLENRCQSLTEDLEFRKSMYEEEINETRRKHETRLVEVDSGRQIEYEYKLAQALHEMREQHDAQVRLYKEELEQTYHAKLENARLSSEMNTSTVNSAREELMESRMRIESLSSQLSNLQKESRACLERIQELEDLLAKEKDNSRRMLTDKEREMAEIRDQMQQQLNDYEQLLDVKLALDMEISAYRKLLEGEEERLKLSPSPSSRVTVSRASSSRSVRTTRGKRKRVDVEESEASSSVSISHSASATGNVCIEEIDVDGKFIRLKNTSEQDQPMGGWEMIRKIGDTSVSYKYTSRYVLKAGQTVTIWAANAGVTASPPTDLIWKNQNSWGTGEDVKVILKNSQGEEVAQRSTVFKTTIPEEEEEEEEAAGVVVEEELFHQQGTPRASNRSCAIM [LMNB1]”, the values for the thermal stability score in the series on HeLa Kyoto [1] (setting [5]) and with HeLa Kyoto [1] (cell cycle stage: mitosis) were -12 and -7.18, respectively. Further, the melting temperature with HeLa Kyoto [2] (cell cycle stage: G1/S) is 51.1 °C; in the series with HeLa Kyoto [2] (cell cycle stage: mitosis) it was 50.1 °C. The “solubility in G1/S (log2)” value in the series with HeLa Kyoto [3] is -1.97. Besides, the “solubility change mitosis (log2)” value in the series on HeLa Kyoto [4] came to 1.92.
As to “MATDELATKLSRRLQMEGEGGGETPEQPGLNGAAAAAAGAPDEAAEALGSADCELSAKLLRRADLNQGIGEPQSPSRRVFNPYTEFKEFSRKQIKDMEKMFKQYDAGRDGFIDLMELKLMMEKLGAPQTHLGLKNMIKEVDEDFDSKLSFREFLLIFRKAAAGELQEDSGLCVLARLSEIDVSSEGVKGAKSFFEAKVQAINVSSRFEEEIKAEQEERKKQAEEMKQRKAAFKELQSTFK [EFHD2]”, the values for the thermal stability score in the series on HeLa Kyoto [1] (setting [5]) and with HeLa Kyoto [1] (cell cycle stage: mitosis) were 1.76 and 0.882, respectively. Besides, the melting temperature stood at 52.5 °C with HeLa Kyoto [2] (cell cycle stage: G1/S) and 53.7 °C with HeLa Kyoto [2] (cell cycle stage: mitosis). Moreover, in the series on HeLa Kyoto [3], the “solubility in G1/S (log2)” value was found to be 0.681. Moreover, the “solubility change mitosis (log2)” value in the series with HeLa Kyoto [4] came to 0.139.
In the case of “MATDSWALAVDEQEAAVKSMTNLQIKEEKVKADTNGIIKTSTTAEKTDEEEKEDRAAQSLLNKLIRSNLVDNTNQVEVLQRDPNSPLYSVKSFEELRLKPQLLQGVYAMGFNRPSKIQENALPMMLAEPPQNLIAQSQSGTGKTAAFVLAMLSRVEPSDRYPQCLCLSPTYELALQTGKVIEQMGKFYPELKLAYAVRGNKLERGQKISEQIVIGTPGTVLDWCSKLKFIDPKKIKVFVLDEADVMIATQGHQDQSIRIQRMLPRNCQMLLFSATFEDSVWKFAQKVVPDPNVIKLKREEETLDTIKQYYVLCSSRDEKFQALCNLYGAITIAQAMIFCHTRKTASWLAAELSKEGHQVALLSGEMMVEQRAAVIERFREGKEKVLVTTNVCARGIDVEQVSVVINFDLPVDKDGNPDNETYLHRIGRTGRFGKRGLAVNMVDSKHSMNILNRIQEHFNKKIERLDTDDLDEIEKIAN [DDX19A]”, the figures for the thermal stability score in the series with HeLa Kyoto [1] (setting [5]) and in the series with HeLa Kyoto [1] (cell cycle stage: mitosis) were 1.53 and 0.923, respectively. The melting temperature with HeLa Kyoto [2] (cell cycle stage: G1/S) and in the series on HeLa Kyoto [2] (cell cycle stage: mitosis) was 49.9 °C in each case. In the series on HeLa Kyoto [3], the “solubility in G1/S (log2)” value is 0.212. Besides, the “solubility change mitosis (log2)” value in the series with HeLa Kyoto [4] is -0.05.
As for “MATDWLGSIVSINCGDSLGVYQGRVSAVDQVSQTISLTRPFHNGVKCLVPEVTFRAGDITELKILEIPGPGDNQHFGDLHQTELGPSGAGCQVGINQNGTGKFVKKPASSSSAPQNIPKRTDVKSQDVAVSPQQQQCSKSYVDRHMESLSQSKSFRRRHNSWSSSSRHPNQATPKKSGLKNGQMKNKDDECFGDDIEEIPDTDFDFEGNLALFDKAAVFEEIDTYERRSGTRSRGIPNERPTRYRHDENILESEPIVYRRIIVPHNVSKEFCTDSGLVVPSISYELHKKLLSVAEKHGLTLERRLEMTGVCASQMALTLLGGPNRLNPKNVHQRPTVALLCGPHVKGAQGISCGRHLANHDVQVILFLPNFVKMLESITNELSLFSKTQGQQVSSLKDLPTSPVDLVINCLDCPENVFLRDQPWYKAAVAWANQNRAPVLSIDPPVHEVEQGIDAKWSLALGLPLPLGEHAGRIYLCDIGIPQQVFQEVGINYHSPFGCKFVIPLHSA [EDC3]”, the thermal stability score worked out at 1.79 with HeLa Kyoto [1] (setting [5]) and 1.47 with HeLa Kyoto [1] (cell cycle stage: mitosis). Also, the melting temperature in the series with HeLa Kyoto [2] (cell cycle stage: G1/S) stood at 50.1 °C; with HeLa Kyoto [2] (cell cycle stage: mitosis), 50 °C. Besides, the “solubility in G1/S (log2)” value in the series on HeLa Kyoto [3] was -0.0361. Further, in the series on HeLa Kyoto [4], the “solubility change mitosis (log2)” value turned out to be 0.245.
As for “MATEHPEPPKAELQLPPPPPPGHYGAWAAQELQAKLAEIGAPIQGNREELVERLQSYTRQTGIVLNRPVLRGEDGDKAAPPPMSAQLPGIPMPPPPLGLPPLQPPPPPPPPPPGLGLGFPMAHPPNLGPPPPLRVGEPVALSEEERLKLAQQQAALLMQQEERAKQQGDHSLKEHELLEQQKRAAVLLEQERQQEIAKMGTPVPRPPQDMGQIGVRTPLGPRVAAPVGPVGPTPTVLPMGAPVPRPRGPPPPPGDENREMDDPSVGPKIPQALEKILQLKESRQEEMNSQQEEEEMETDARSSLGQSASETEEDTVSVSKKEKNRKRRNRKKKKKPQRVRGVSSESSGDREKDSTRSRGSDSPAADVEIEYVTEEPEIYEPNFIFFKRIFEAFKLTDDVKKEKEKEPEKLDKLENSAAPKKKGFEEEHKDSDDDSSDDEQEKKPEAPKLSKKKLRRMNRFTVAELKQLVARPDVVEMHDVTAQDPKLLVHLKATRNSVPVPRHWCFKRKYLQGKRGIEKPPFELPDFIKRTGIQEMREALQEKEEQKTMKSKMREKVRPKMGKIDIDYQKLHDAFFKWQTKPKLTIHGDLYYEGKEFETRLKEKKPGDLSDELRISLGMPVGPNAHKVPPPWLIAMQRYGPPPSYPNLKIPGLNSPIPESCSFGYHAGGWGKPPVDETGKPLYGDVFGTNAAEFQTKTEEEEIDRTPWGELEPSDEESSEEEEEEESDEDKPDETGFITPADSGLITPGGFSSVPAGMETPELIELRKKKIEEAMDGSETPQLFTVLPEKRTATVGGAMMGSTHIYDMSTVMSRKGPAPELQGVEVALAPEELELDPMAMTQKYEEHVREQQAQVEKEDFSDMVAEHAAKQKQKKRKAQPQDSRGGSKKYKEFKF [SF3B2]”, the figures for the thermal stability score with HeLa Kyoto [1] (setting [5]) and in the series with HeLa Kyoto [1] (cell cycle stage: mitosis) were -1.42 and -2.09, respectively. Moreover, the melting temperature worked out at 50.5 °C with HeLa Kyoto [2] (cell cycle stage: G1/S) and 49.9 °C in the series with HeLa Kyoto [2] (cell cycle stage: mitosis). Further, in the series with HeLa Kyoto [3], the “solubility in G1/S (log2)” value was -0.165. Also, the “solubility change mitosis (log2)” value with HeLa Kyoto [4] was determined as 0.237.
